# According to patent US20120177639A1:
# Experiments:
# [1] = molecular target: low-molecular-weight oligomers of Aβ (1-42) (UniProt P05067); assay: ELISA, antigen coated at 1 µg/ml, anti-human Fc peroxidase detection
# [2] = molecular target: protofibrils prepared from the synthetic peptide Aβ (1-42) (UniProt P05067); assay: as above
# [3] = molecular target: protofibrils prepared from the synthetic peptide Aβ (1-42) (UniProt P05067); assay: ELISA; ratio of the EC50 on low-molecular-weight oligomers to the EC50 on protofibrils
Binder,EC50 [1],EC50 [2],LMW/PF [3]
"humanized antibody LP09026 (antibody, human IgG4 S228P, kappa, V domains shown) VH: EVQLQQSGPEVVKPGVSVKISCKGSGYTFTDYAMHWVKQSPGKSLEWIGVISTKYGKTNYNPSFQGQATMTVDKSSSTAYMELASLKASDSAIYYCARGDEGYSWGQGTSVTVSS VL: EIVMTQTPLSLPVSLGDRASISCRSGQSLVHSNTNTYLHWYLQKPGQSPKLLIYTVSNRFSGVPDRFSGSGSGSDFTLTISRVEAEDLGVYFCSQNTFVPWTFGGGTKLEIKR",41.4 µg/mL,0.0587 µg/mL,705
"humanized anti-peptide Aβ antibody VH1VL1 (LP09027) (antibody, human IgG4 S228P, kappa, V domains shown) VH: EVQLQQSGPEVVKPGVSVKISCKGSGYTFTDYAMHWVKQSPGKSLEWIGVISTKYGKTNYNPSFQGQATMTVDKSSSTAYMELASLKASDSAIYYCARGDDGYSWGQGTSVTVSS VL: EIVMTQTPLSLPVSLGDRASISCRSGQSLVHSNGNTYLHWYLQKPGQSPKLLIYTVSNRFSGVPDRFSGSGSGSDFTLTISRVEAEDLGVYFCSQNTFVPWTFGGGTKLEIKR",14.7 µg/mL,0.0798 µg/mL,184
"humanized antibody LP09028 (antibody, human IgG4 S228P, kappa, V domains shown) VH: EVQLQQSGPEVVKPGVSVKISCKGSGYTFTDYAMHWVKQSPGKSLEWIGVISTKYGKTNYNPSFQGQATMTVDKSSSTAYMELASLKASDSAIYYCARGDDGYSWGQGTSVTVSS VL: EIVMTQTPLSLPVSLGDRASISCRSGQSLVHSNTNTYLHWYLQKPGQSPKLLIYTVSNRFSGVPDRFSGSGSGSDFTLTISRVEAEDLGVYFCSQNTFVPWTFGGGTKLEIKR",21.8 µg/mL,0.0892 µg/mL,244
